Data from patent US20030200558A1 (MONSANTO, published 2003).

B1: β-conglycinin β subunit mutant 39335-17 (other)
chain: MDYKDDDDKLKVREDENNPFYLRSSNSFQTLFENQNGRIRLIQRFNKRSPQLENLRDYRIVQIQSKPNTIILPHHADADFIIIILSGRAILTLVNNDDRDSYNIHPGDAIRIPAGTTYYIINPHDHQNLKIIKIAIPVNKPGRYDDFFLSSTQAQQSYLQGFSHNILETSFHSEFEEINRVLLGEEEEQRQQEGVIVELSKEQIRQLSRRAKSSSRKTISSEDEPFNLRSRNPIYSNNFGKIFEITPEKTPQLRDLDIFISSVDINEGALILPHFNSKAIVILVINEGDANIEIVGIKEQQQKQKQEEEPLEVQRYRAELSEDDIIVIPAAYPFVVNATSNLNIIAIGINAENNQRNFLAGEKDNVVRQIERQVQELAFPGSAQDVERLLKKQRESYFVDAQPQQKEEGSKGRKGPFPSILGALY
B2: β-conglycinin β subunit mutant 39335-27 (other)
chain: MDYKDDDDKLKVREDENNPFYLRSSNSFQTLFENQNGRIRLIQRFNKRSPQLENLRDYRIVQIQSKPNTIILPHHADADFIIIILSGRAIITLVNNDDRDSYNIHPGDAIRIPAGTTYYIINPHDHQNLKIIKIAIPVNKPGRYDDFFLSSTQAQQSYLQGFSHNILETSFHSEFEEINRVLLGEEEEQRQQEGVIVELSKEQIRQLSRRAKSSSRKTISSEDEPFNLRSRNPIYSNNFGKIFEITPEKTPQLRDLDIFISSVDINEGALILPHFNSKAIVILVINEGDANIEIVGIKEQQQKQKQEEEPLEVQRYRAELSEDDIIVIPAAYPFVINATSNLNFLAFGINAENNQRNFLAGEKDNVVRQIERQVQELAFPGSAQDVERLLKKQRESYFVDAQPQQKEEGSKGRKGPFPSILGALY
B3: β-conglycinin β subunit mutant 39335-26 (other)
chain: MDYKDDDDKLKVREDENNPFYLRSSNSFQTLFENQNGRIRLIQRFNKRSPQLENLRDYRIVQFQSKPNTIILPHHADADFIIIILSGRAILTLVNNDDRDSYNIHPGDAQRIPAGTTYYIINPHDHQNLKIIKIAIPVNKPGRYDDFFLSSTQAQQSYLQGFSHNILETSFHSEFEEINRVLLGEEEEQRQQEGVIVELSKEQIRQLSRRAKSSSRKTISSEDEPFNLRSRNPIYSNNFGKFFEITPEKTPQLRDLDIFLSSVDINEGALLLPHFNSKAIVILVINEGDANIELVGIKEQQQKQKQEEEPLEVQRYRAELSEDDIIVIPAAYPFVVNATSNLNIIAIGINAENNQRNFLAGEKDNVVRQIERQVQELAFPGSAQDVERLLKKQRESYFVDAQPQQKEEGSKGRKGPFPSILGALY
B4: β-conglycinin β subunit mutant 39335-28 (other)
chain: MDYKDDDDKLKVREDENNPFYLRSSNSFQTLFENQNGRIRLIQRFNKRSPQLENLRDYRIVQFQSKPNTIILPHHADADFIIIILSGRAIITLVNNDDRDSYNIHPGDAIRIPAGTTYYIINPHDHQNLKIIKIAIPVNKPGRYDDFFLSSTQAQQSYLQGFSHNILETSFHSEFEEINRVLLGEEEEQRQQEGVIVELSKEQIRQLSRRAKSSSRKTISSEDEPFNLRSRNPIYSNNFGKIFEITPEKTPQLRDLDIFISSVDINEGALILPHFNSKAIVILVINEGDANIEIVGIKEQQQKQKQEEEPLEVQRYRAELSEDDVFVIPAAYPFVVNATSNLNIIAIGINAENNQRNFLAGEKDNVVRQIERQVQELAFPGSAQDVERLLKKQRESYFVDAQPQQKEEGSKGRKGPFPSILGALY
B5: β-conglycinin β subunit mutant 39335-19 (other)
chain: MDYKDDDDKLKVREDENNPFYLRSSNSFQTLFENQNGRIRLIQRFNKRSPQLENLRDYRIVQIQSKPNTIILPHHADADFIIIILSGRAIITLVNNDDRDSYNIHPGDAIRIPAGTTYYIINPHDHQNLKIIKIAIPVNKPGRYDDFFLSSTQAQQSYLQGFSHNILETSFHSEFEEINRVLLGEEEEQRQQEGVIVELSKEQIRQLSRRAKSSSRKTISSEDEPFNLRSRNPIYSNNFGKIFEITPEKTPQLRDLDIFISSVDINEGALILPHFNSKAIVILVINEGDANIEIVGIKEQQQKQKQEEEPLEVQRYRAELSEDDIIVIPAAYPFVVNATSNLNIIAIGINAENNQRNFLAGEKDNVVRQIERQVQELAFPGSAQDVERLLKKQRESYFVDAQPQQKEEGSKGRKGPFPSILGALY
B6: β-conglycinin β subunit mutant 39335-22 (other)
chain: MDYKDDDDKLKVREDENNPFYLRSSNSFQTLFENQNGRIRLIQRFNKRSPQLENLRDYRIVQIQSKPNTIILPHHADADFIIIILSGRAIITIVNNDDRDSYNIHPGDAIRIPAGTTYYIINPHDHQNLKIIKIAIPVNKPGRYDDFFLSSTQAQQSYLQGFSHNILETSFHSEFEEINRVLLGEEEEQRQQEGVIVELSKEQIRQLSRRAKSSSRKTISSEDEPFNLRSRNPIYSNNFGKIFEITPEKTPQLRDLDIFISSVDINEGALILPHFNSKAIVILVINEGDANIEIVGIKEQQQKQKQEEEPLEVQRYRAELSEDDIIVIPAAYPFVINATSNLNFLAFGINAENNQRNFLAGEKDNVVRQIERQVQELAFPGSAQDVERLLKKQRESYFVDAQPQQKEEGSKGRKGPFPSILGALY
B7: β-conglycinin β subunit mutant 39335-10 (other)
chain: MDYKDDDDKLKVREDENNPFYLRSSNSFQTLFENQNGRIRLIQRFNKRSPQLENLRDYIIVQFQSKPNTILLPHHADADFIIIILSGRAILTLVNNDDRDSYNLHPGIAQRIPAGTTYYIINPHDHQNLKIIKIAIPVNKPGRYDDFFLSSTQAQQSYLQGFSHNILETSFHSEFEEINRVLLGEEEEQRQQEGVIVELSKEQIRQLSRRAKSSSRKTISSEDEPFNLRSRNPIYSNNFGKIFEITPEKTPQLRDLDIFLSSVDINEGALLLPHFNSKAIVILVINEGDANIEIVGIKEQQQKQKQEEEPLEVQRYRAELSEDDVFVIPAAYPFVVNATSNLNFLAFGINAENNQRNFLAGEKDNVVRQIERQVQELAFPGSAQDVERLLKKQRESYIVDAQPQQKEEGSKGRKGPFPSILGALY
B8: β-conglycinin β subunit mutant 39335-13 (other)
chain: MDYKDDDDKLKVREDENNPFYLRSSNSFQTLFENQNGRIRLIQRFNKRSPQLENLRDYRIVQFQSKPNTIILPHHADADFIIIILSGRAILTLVNNDDRDSYNIHPGDAQRIPAGTTYYLVNPHDHQNLKIIKIAIPVNKPGRYDDFFLSSTQAQQSYLQGFSHNILETSFHSEFEEINRVLLGEEEEQRQQEGVIVELSKEQIRQLSRRAKSSSRKTISSEDEPFNLRSRNPIYSNNFGKIFEITPEKTPQLRDLDIFLSSVDINEGALLLPHFNSKAIVILVINEGDANIELVGIKEQQQKQKQEEEPLEVQRYRAELSEDDVFVIPAAYPFVVNATSNLNFLAFGINAENNQRNFLAGEKDNVVRQIERQVQELAFPGSAQDVERLLKKQRESYFVDAQPQQKEEGSKGRKGPFPSILGALY
B9: β-conglycinin β subunit mutant 39335-20 (other)
chain: MDYKDDDDKLKVREDENNPFYLRSSNSFQTLFENQNGRIRLIQRFNKRSPQLENLRDYRIVQIQSKPNTIILPHHADADFIIIILSGRAIITLVNNDDRDSYNIHPGDAIRIPAGTTYYIINPHDHQNLKIIKIAIPVNKPGRYDDFFLSSTQAQQSYLQGFSHNILETSFHSEFEEINRVLLGEEEEQRQQEGVIVELSKEQIRQLSRRAKSSSRKTISSEDEPFNLRSRNPIYSNNFGKIFEITPEKTPQLRDLDIFISSVDINEGALILPHFNSKAIVILVINEGDANIEIVGIKEQQQKQKQEEEPLEVQRYRAELSEDDVFVIPAAYPFVVNATSNLNFLAFGINAENNQRNFLAGEKDNVVRQIERQVQELAFPGSAQDVERLLKKQRESYFVDAQPQQKEEGSKGRKGPFPSILGALY
B10: β-conglycinin β subunit mutant 39335-25 (other)
chain: MDYKDDDDKLKVREDENNPFYLRSSNSFQTLFENQNGRIRLIQRFNKRSPQLENLRDYRIVQFQSKPNTIILPHHADADFIIIILSGRAIITLVNNDDRDSYNIHPGDAIRIPAGTTYYIINPHDHQNLKIIKIAIPVNKPGRYDDFFLSSTQAQQSYLQGFSHNILETSFHSEFEEINRVLLGEEEEQRQQEGVIVELSKEQIRQLSRRAKSSSRKTISSEDEPFNLRSRNPIYSNNFGKIFEITPEKTPQLRDLDIFISSVDINEGALILPHFNSKAIVILVINEGDANIEIVGIKEQQQKQKQEEEPLEVQRYRAELSEDDVFVIPAAYPFVVNATSNLNFLAFGINAENNQRNFLAGEKDNVVRQIERQVQELAFPGSAQDVERLLKKQRESYFVDAQPQQKEEGSKGRKGPFPSILGALY
B11: β-conglycinin β subunit mutant 39335-21 (other)
chain: MDYKDDDDKLKVREDENNPFYLRSSNSFQTLFENQNGRIRLIQRFNKRSPQLENLRDYRIVQIQSKPNTIILPHHADADFIIIILSGRAILTLVNNDDRDSYNIHPGDAQRIPAGTTYYIINPHDHQNLKIIKIAIPVNKPGRYDDFFLSSTQAQQSYLQGFSHNILETSFHSEFEEINRVLLGEEEEQRQQEGVIVELSKEQIRQLSRRAKSSSRKTISSEDEPFNLRSRNPIYSNNFGKFFEITPEKTPQLRDLDIFLSSVDINEGALILPHFNSKAIVILVINEGDANIEIVGIKEQQQKQKQEEEPLEVQRYRAELSEDDVFVIPAAYPFVINATSNLNFLAFGINAENNQRNFLAGEKDNVVRQIERQVQELAFPGSAQDVERLLKKQRESYFVDAQPQQKEEGSKGRKGPFPSILGALY
B12: β-conglycinin β subunit mutant 39335-29 (other)
chain: MDYKDDDDKLKVREDENNPFYLRSSNSFQTLFENQNGRIRLIQRFNKRSPQLENLRDYRIVQFQSKPNTIILPHHADADFIIIILSGRAILTLVNNDDRDSYNIHPGDAQRIPAGTTYYIINPHDHQNLKIIKIAIPVNKPGRYDDFFLSSTQAQQSYLQGFSHNILETSFHSEFEEINRVLLGEEEEQRQQEGVIVELSKEQIRQLSRRAKSSSRKTISSEDEPFNLRSRNPIYSNNFGKIFEITPEKTPQLRDLDIFISSVDINEGALILPHFNSKAIVILVINEGDANIEIVGIKEQQQKQKQEEEPLEVQRYRAELSEDDVFVIPAAYPFVVNATSNLNIIAIGINAENNQRNFLAGEKDNVVRQIERQVQELAFPGSAQDVERLLKKQRESYFVDAQPQQKEEGSKGRKGPFPSILGALY
B13: β-conglycinin β subunit mutant 39335-12 (other)
chain: MDYKDDDDKLKVREDENNPFYLRSSNSFQTLFENQNGRIRLIQRFNKRSPQLENLRDYIIVQFQSKPNTIILPHHADADFIIIILSGRAILTLVNNDDRDSYNLHPGDAQRIPAGTTYYIINPHDHQNLKIIKIAIPVNKPGRYDDFFLSSTQAQQSYLQGFSHNILETSFHSEFEEINRVLLGEEEEQRQQEGVIVELSKEQIRQLSRRAKSSSRKTISSEDEPFNLRSRNPIYSNNFGKIFEITPEKTPQLRDLDIFLSSVDINEGALLLPHFNSKAIVILVINEGDANIEIVGIKEQQQKQKQEEEPLEVQRYRAELSEDDVFVIPAAYPFVVNATSNLNFLAFGINAENNQRNFLAGEKDNVVRQIERQVQELAFPGSAQDVERLLKKQRESYIVDAQPQQKEEGSKGRKGPFPSILGALY

Target: the molecule itself
Assay: sucrose gradient sedimentation, anti-FLAG western (self-assembly)

Q: Does B1 bind?
A: Result: no binding

Q: Does B2 bind?
A: Result: no binding

Q: Does B3 bind?
A: Result: no binding

Q: Does B4 bind?
A: Result: no binding

Q: Does B5 bind?
A: Result: no binding

Q: Does B6 bind?
A: Result: no binding

Q: Does B7 bind?
A: Result: no binding

Q: Does B8 bind?
A: Result: no binding

Q: Does B9 bind?
A: Result: no binding

Q: Does B10 bind?
A: Result: no binding

Q: Does B11 bind?
A: Result: no binding

Q: Does B12 bind?
A: Result: no binding

Q: Does B13 bind?
A: Result: no binding
